# Test results taken from patent US11230581B2, “Peptides and combination of peptides for use in immunotherapy against ovarian cancer and other cancers” (Immatics Biotechnologies GmbH, priority 2015, dated 2022).
# Target: HLA-A*02:01 (Homo sapiens, UniProt P04439, D140Y/D185E/D98H/E176V/E277Q/G131W/G231S/I119V/I121R/I166T/I218V/L300P/L318F/N151K/N90K/P208A/P217A/Q86G/Q94H/R138H/R169H/T345S)
# Experiment: MHC binding assay (UV-ligand exchange, β2m ELISA, peptide exchange yield)
# Conditions: binding of HLA-class I restricted peptides to HLA-A*02:01, UV-ligand exchange
# How it was run: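 Peptide-MHC complexes formed by UV-ligand exchange, cleaving a UV-sensitive placeholder peptide in favour of the test peptide. Exchange yield measured by ELISA: monomers diluted 100-fold onto streptavidin-coated plates, 1 h 37 °C, detected with 2 ug/ml HRP anti-β2m and TMB, absorbance at 450 nm.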
row,Substance,"Peptide exchange (MHC class I binding score, peptide exchange yield)"
1,600 (ALAAPDIVPAL; listed as Homo sapiens) [compound 600],“+++” (≥50 = +++)
2,218 (SALEELVNV; listed as Homo sapiens) [compound 218],“++” (≥20% = ++)
3,565 (ALQETPTSV; listed as Homo sapiens) [compound 565],“++” (≥20% = ++)
4,157 (SLNDEVPEV; listed as Homo sapiens) [compound 157],“++” (≥20% = ++)
5,244 (SLFGGTEITI; listed as Homo sapiens) [compound 244],“+++” (≥50 = +++)
6,615 (VLPPDTDPA; listed as Homo sapiens) [compound 615],“++” (≥20% = ++)
7,219 (KLSDIGITV; listed as Homo sapiens) [compound 219],“+++” (≥50 = +++)
8,353 (YLFEMDSSL; listed as Homo sapiens) [compound 353],“++” (≥20% = ++)
9,279 (ALWGGTQPLL; listed as Homo sapiens) [compound 279],“++” (≥20% = ++)
10,236 (GLLEAKVSL; listed as Homo sapiens) [compound 236],“+++” (≥50 = +++)
11,476 (ALMERTGYSMV; listed as Homo sapiens) [compound 476],“+++” (≥50 = +++)
12,449 (KLAEGLDIQL; listed as Homo sapiens) [compound 449],“+++” (≥50 = +++)
13,333 (FLPDANSSV; listed as Homo sapiens) [compound 333],“++” (≥20% = ++)
14,621 (VLMDRLPSLL; listed as Homo sapiens) [compound 621],“++++” (≥75% = ++++)
15,549 (AMLENASDIKL; listed as Homo sapiens) [compound 549],“+++” (≥50 = +++)
16,123 (NLWDLTDASVV; listed as Homo sapiens) [compound 123],“+++” (≥50 = +++)
17,222 (NLIENVQRL; listed as Homo sapiens) [compound 222],“++” (≥20% = ++)
18,521 (MLLTKLPTI; listed as Homo sapiens) [compound 521],“+++” (≥50 = +++)
19,566 (VIADGGIQNV; listed as Homo sapiens) [compound 566],“++” (≥20% = ++)
20,261 (YVLEFLEEI; listed as Homo sapiens) [compound 261],“++” (≥20% = ++)
21,266 (KITDTLIHL; listed as Homo sapiens) [compound 266],“+++” (≥50 = +++)
22,464 (ALNDCIYSV; listed as Homo sapiens) [compound 464],“+++” (≥50 = +++)
23,91 (IMQDFPAEIFL; listed as Homo sapiens) [compound 91],“++++” (≥75% = ++++)
24,127 (KIGDEPPKV; listed as Homo sapiens) [compound 127],“++” (≥20% = ++)
25,526 (RLAEVGQYEQV; listed as Homo sapiens) [compound 526],“++” (≥20% = ++)
